For test [1], the target named is T1, BMP2 (Homo sapiens, UniProt P12643).
T1 sequence (P12643 283-396): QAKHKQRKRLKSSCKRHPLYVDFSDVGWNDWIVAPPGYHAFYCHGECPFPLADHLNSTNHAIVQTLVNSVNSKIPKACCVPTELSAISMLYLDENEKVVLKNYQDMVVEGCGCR
Kind of test: Surface plasmon resonance (SPR), BMPs injected over VHH-coated chip. Particulars: molecule coupled to chip, —: No binding detected. The protocol:
In a first set of experiments, controls and VHHs (either as monomers or dimers) were coupled to SPR chips and the measurement of BMP affinities was obtained by injecting the different BMPs to the plate.
(§1) Serial dilutions (2.0-10 μg/ml) of purified VHHs were spotted on an amine-specific SensEye gold-film gel-type SPRchip (Ssens), using a Continuous Flow Microspotter (Wasatch Microfluidics, Salt Lake City, Utah, United States) as described (Lokate et al., 2007). BMP binding was analyzed on an IBIS MX96 (IBIS Technologies, Enschede, The Netherlands) instrument by performing injections with dilution series (0.05-2.0 μg/ml) of recombinant BMPs on the VHH-coated chip. In each injection, BMPs were injected and incubated for 8 min, followed by 15 min thorough washing with binding buffer (PBS+0.05% Tween20+0.05% sodium azide) to measure dissociation. Epitope binning was done by injecting VHH dilutions (2.0 μg/ml) over the chip, immediately after the dissociation step. Injections with blank binding buffer were used as reference. After each concatenated injection, the chip was regenerated with 10 mM glycine-HCl, pH 2.0. Experimental data were processed with SPRintX software (IBIS Technologies) and kinetic parameters were determined using Scrubber2 software (BioLogic Software, Campbell, ACT, Australia). Binding constants were obtained by global fitting to a one-site binding model.
On the technique in general: In SPR one partner is held on a chip, and binding of the other changes the refractive index at the surface.

The next test deals with T2, BMP6 (Homo sapiens, UniProt P22004).
T2 sequence (P22004 375-513): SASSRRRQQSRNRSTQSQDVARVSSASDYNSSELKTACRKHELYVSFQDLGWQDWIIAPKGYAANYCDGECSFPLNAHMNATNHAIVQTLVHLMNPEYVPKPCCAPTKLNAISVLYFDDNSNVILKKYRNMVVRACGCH
The test is described as above. Conditions: molecule coupled to chip; unit inferred; — not defined there (Table 1: No binding detected). As for the experimental part:
(§2) To confirm their BMP specificities and to elucidate their binding affinities, our VHHs were subjected to surface plasmon resonance (SPR) analysis. In a first set of experiments, controls and VHHs (either as monomers or dimers) were coupled to SPR chips and the measurement of BMP affinities was obtained by injecting the different BMPs to the plate.
as §1

A further test has as its target T3, BMP5 (Homo sapiens, UniProt P22003).
T3 sequence (P22003 317-454): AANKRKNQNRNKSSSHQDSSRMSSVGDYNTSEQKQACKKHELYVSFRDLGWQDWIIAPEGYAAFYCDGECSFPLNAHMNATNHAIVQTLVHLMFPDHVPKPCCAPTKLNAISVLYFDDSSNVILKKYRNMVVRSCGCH
Described as above. The class given is binding. Conditions: molecule coupled to chip; unit inferred. The protocol: as §2, §1

In another test the target is T4, BMP7 (Homo sapiens, UniProt P18075).
T4 sequence (P18075 293-431): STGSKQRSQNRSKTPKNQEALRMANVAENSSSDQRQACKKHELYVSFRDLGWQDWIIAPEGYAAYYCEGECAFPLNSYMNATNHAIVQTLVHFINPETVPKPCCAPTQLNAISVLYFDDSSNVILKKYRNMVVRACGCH
Described as above. It is filed as binding. Particulars: molecule coupled to chip; unit inferred; — not defined there (Table 1: No binding detected). The protocol: as §2, §1

The target in test [2] is T5, BMP4 (Homo sapiens, UniProt P12644).
T5 sequence (P12644 293-408): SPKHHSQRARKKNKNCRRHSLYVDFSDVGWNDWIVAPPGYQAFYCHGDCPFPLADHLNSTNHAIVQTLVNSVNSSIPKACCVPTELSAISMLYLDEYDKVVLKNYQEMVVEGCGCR
The description is as above. The class given is binding. More on the design: purchased R&D systems. Particulars: molecule coupled to chip. The protocol: as §2, §1

Test [3] concerns the target T6, BMP2 (human).
T6 chain: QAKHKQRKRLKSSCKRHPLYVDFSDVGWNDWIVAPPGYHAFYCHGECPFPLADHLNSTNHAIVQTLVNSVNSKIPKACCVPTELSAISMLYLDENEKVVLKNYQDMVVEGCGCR
Kind of test: SPR.

The target of test [4] is T7, BMP4 (human).
T7 chain: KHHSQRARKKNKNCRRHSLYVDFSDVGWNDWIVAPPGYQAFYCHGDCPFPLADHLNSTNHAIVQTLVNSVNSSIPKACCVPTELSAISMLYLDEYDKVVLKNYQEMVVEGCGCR
Kind of test: SPR.

For test [5], the target named is T1, BMP2. Kind of test: BMP activity luciferase reporter assay (BRE-luciferase, ID1 promoter) in C2C12 cells. It is filed as cell-based, mouse. Conditions: BMP2 50 ng/ml, 16 hours; 5 μg/ml. The protocol: One of the most studied BMP target genes is the Inhibitor of Differentiation 1 (ID1). This is an immediate early gene that is activated by binding of the phosphorylated SMADs to its promoter region (López-Rovira et al., 2002). Thus, we employed the BMP-responsive C2C12 cells, which are stably transfected with the BRE-luciferase vector containing the BMP-Responsive-Element (the mouse ID1 promoter) cloned into the pGL3 luciferase vector (Zilberberg 2007). […] C2C12 cells were treated with the different BMPs with or without our VHHs or human Noggin at a concentration of 5 μg/ml. Luciferase activity was measured after 16 hours incubation. Most of the transcriptional data is in concordance with the results obtained with the phosphorylation of SMAD1/5/8.
C2C12 cells were plated in 96-well plates at 5×10^3 cells/well and cells were allowed to attach overnight. 100 μl of DMEM with 0.1% BSA were added in each well. VHH antibodies and human Fc-Noggin at the indicated concentrations were added at the same time. Wells with unstimulated cells were added as controls. Cells were treated in triplicate with the BMPs at the indicated concentrations for 16 hours. Luciferase activity was measured by adding 100 μl of luciferase substrate solution from the Bright-Glo™ Luciferase Assay System (Promega Benelux, Leiden, The Netherlands). After 3 minutes of incubation, luciferase activity was measured with Synergy HT Multi-Mode Microplate Reader (Biotek, Winooski, Vt., United States). Luciferase values were normalized to background activity (activity of wells with no cells) and represented as ratio to the activity of BMP-stimulated cells.
To evaluate the extent of this increase in potency, the IC50 of the different VHHs were determined in a dose-dependent inhibition assay in C2C12 cells (FIG. 25). C2C12 cells were plated in 96-well plates at 5×10^3 cells/well and cells were allowed to attach overnight 100 μl of DMEM with 0.1% BSA were added in each well. VHH antibodies were added at the indicated concentrations at the same time as 5 ng/ml BMP4 (FIG. 25A-B, D) or 50 ng/ml of BMP2 (FIG. 25C,D). Luciferase activity was measured after 16 hours. Values are represented as ratio to the activity of BMP-stimulated cells. […] However, its effects were more striking for BMP2 rather than BMP4 inhibition. […] The IC50 values for BMP4 inhibition observed in our VHHs are considerably lower than those observed for anti-BMP4 commercially available from R&D (Katagiri et al 1994) and those described in WO_2008/030611.
C2C12 cells were cultured in 96-well plates at 5×10^3 cells/well. After overnight attachment cells were stimulated with 10 ng/ml hBMP4 (Cat No. 314-BP-020; R&D Systems), 50 ng/ml hBMP2 (Cat No. 355-BM-010; R&D Systems), 200 ng/ml hBMP5 (Cat No. 615-BMC-020; R&D Systems), 50 ng/ml hBMP6 (Cat No. 506-BP-020; R&D Systems), 200 ng/ml hBMP7 (Cat No. 354-BP-010; R&D Systems), 25 ng/ml hBMP9 (Cat No. 3209-BP-010; R&D Systems), 25 ng/ml hBMP10 (Cat No. 2926-BP-025; R&D Systems), 50 ng/ml hBMP12 (Cat No. 779-G7-010; R&D Systems) and with or without VHH antibodies: C4C4 and C8C8 at 500 ng/ml; natural antagonist: mNoggin (Cat No. 1967-NG-025; R&D Systems), hNoggin (Cat No. 6057-NG; R&D Systems) and mGremlin (cat#956-GR-050; R&D Systems) at 500 ng/ml; chemical antagonist: 0.5 μM LDN-193189 (Cat No. 11802; Cayman Chemical) and 0.2 μM DMH1 (Cat No. 57146; Selleckchem).
VHH efficacy was evaluated by stimulating cells with 10 ng/ml of hBMP4 and 50 ng/ml of hBMP2, with and without increase concentrations (from 0.1-10 μg/ml) of VHH and anti-BMP4 antibodies: clone 66119, clone 3H2, clone M912262, clone PA354-16.1.1, Clone EPR6211, and anti-BMP4 (ab39973). […] Unstimulated cells were used as controls and wells with no cells used to normalize the background activity. […]
On the technique in general: In a reporter assay the amount or activity of a reporter protein is the signal.

As usually defined, the Kd is the free concentration of one partner at which half of the binding sites on the other are occupied at equilibrium, for simple one-to-one binding. High values mean a looser complex, low ones a tighter complex. In the case of “BMPR1a: type I BMP receptor used as control in SPR [reference compound]”, in the test with BMP2 [1], the “kd (BMP2)” value is on record as 14.0 10^−5 sec^−1. Also, the Kd with BMP6 is 24 nM; with BMP5 it was 60 nM; with BMP7, 131 nM. In the test with BMP4 [2], the “kd (BMP4)” value is given as 9.2 10^−5 sec^−1.

B1: C8-C8 (antibody, V domains shown)
V domain 1: EVQLVESGGGLVQAGGSLRLSCAASGRTFRINDMGWYRQAPGKSRDMVARITSGGNTNYADSVKGRFTISRDNAKNTVYLQMNSLKPEDTAVYYCNADGLRFDSTRYRPFDSWGQGTQVTVSS
V domain 2: EVQLVESGGGLVQAGGSLRLSCAASGRTFRINDMGWYRQAPGKSRDMVARITSGGNTNYADSVKGRFTISRDNAKNTVYLQMNSLKPEDTAVYYCNADGLRFDSTRYRPFDSWGQGTQVTVSS
For B1, the dissociation constant Kd turned out to be 0.0628 nM with BMP2 [3] and 0.031 nM with BMP4 [4].

B2: C8 (antibody, V domains shown)
VH: EVQLVESGGGLVQAGGSLRLSCAASGRTFRINDMGWYRQAPGKSRDMVARITSGGNTNYADSVKGRFTISRDNAKNTVYLQMNSLKPEDTAVYYCNADGLRFDSTRYRPFDSWGQGTQVTVSS
Take B2: the Kd in the test with BMP2 [3] was 0.88 nM; with BMP4 [4], 0.392 nM.

B3: C8-E7 (antibody, V domains shown)
V domain 1: EVQLVESGGGLVQAGGSLRLSCAASGRTFRINDMGWYRQAPGKSRDMVARITSGGNTNYADSVKGRFTISRDNAKNTVYLQMNSLKPEDTAVYYCNADGLRFDSTRYRPFDSWGQGTQVTVSS
V domain 2: EVQLVESGGGLVQAGGSLRLSCAASGSIRGFVAMAWYRQAPGKQREWVATVTNGGTLYGDSVKGRFTGSRDNAKNTVYLQMNSLKPEDTAVYYCALRQIGASGYDYWGQGTQVTVSS
As for B3, the Kd with BMP2 [3] was determined as 0.554 nM; with BMP4 [4] it was 0.099 nM.

B4: E7 (antibody, V domains shown)
VH: EVQLVESGGGLVQAGGSLRLSCAASGSIRGFVAMAWYRQAPGKQREWVATVTNGGTLYGDSVKGRFTGSRDNAKNTVYLQMNSLKPEDTAVYYCALRQIGASGYDYWGQGTQVTVSS
On to B4, for which the dissociation constant (Kd) with BMP2 [3] was determined as 1.07 nM; with BMP4 [4], 0.512 nM.

B5: BMPR1a (protein)
chain: QNLDSMLHGTGMKSDSDQKKSENGVTLAPEDTLPFLKCYCSGHCPDDAINNTCITNGHCFAIIEEDDQGETTLASGCMKYEGSDFQCKDSPKAQLRRTIECCRTNLCNQYLQPTLPPVVIGPFFDGSIR
Molecule B5 had a dissociation constant Kd in the test with BMP4 [4] of 0.635 nM.

B6: C4-C4 (antibody, V domains shown)
V domain 1: EVQLVESGGGLVQAGGSLRLSCAASGRTFSTYAMGWFRQAPGKEREFVAAISKGGGITYYSDSVRGRFTISKENAKNTVYLQMNSLKPEDTAVYYCAADPVSSVAKSPVAYPYWGQGTQVTVSS
V domain 2: EVQLVESGGGLVQAGGSLRLSCAASGRTFSTYAMGWFRQAPGKEREFVAAISKGGGITYYSDSVRGRFTISKENAKNTVYLQMNSLKPEDTAVYYCAADPVSSVAKSPVAYPYWGQGTQVTVSS
Turning to B6, the dissociation constant Kd in the test with BMP2 [3] came to 2.15 nM; with BMP4 [4], 0.0097 nM.

B7: D99A of C4: mutational variant of VHH C4, single substitution D99A (protein)
VHH: EVQLVESGGGLVQAGGSLRLSCAASGRTFSTYAMGWFRQAPGKEREFVAAISKGGGITYYSDSVRGRFTISKENAKNTVYLQMNSLKPEDTAVYYCAAAPVSSVAKSPVAYPYWGQGTQVTVSS
On to B7, for which the “inhibition of BMP2-mediated transcriptional activation” value in the test with BMP2 [5] is recorded as “C4 nor its D99A mutant, had any effect”.

(Values after patent US10280218B2, “Antibodies binding to BMP4, and uses thereof” (ACADEMISCH MEDISCH CENTRUM, priority 2014, dated 2019).)
